Measured values taken from the Human Domainome abundance scans (Beltran et al. 2025).
± gives the uncertainty stated by the source.

B1: Intersectin-1, residues 909 to 971; numbered along this chain, Q15811 (parent)
chain: QGEKVEGLQAQALYPWRAKKDNHLNFNKNDVITVLEQQDMWWFGEVQGQKGWFPKSYVKLISG

Variants of: B1
Assay: abundance fitness (aPCA) (normalised: wild type 0, dead -1); higher = more abundant; growth selection in yeast, the domain comes from the species named
Settings: Homo sapiens

Variant	abundance fitness
QGEKVEGLQAQALYPWRAKKDNHLNSNKNDVITVLEQQDMWWFGEVQGQKGWFPKSYVKLISG [F26S]	-0.866 ± 0.29
QGEKVEGLQAQALYPWRAKKDNHLNANKNDVITVLEQQDMWWFGEVQGQKGWFPKSYVKLISG [F26A]	-0.767 ± 0.23
QGEKVEGLQAQALYPWRAKKDNHLNLNKNDVITVLEQQDMWWFGEVQGQKGWFPKSYVKLISG [F26L]	-0.078 ± 0.11
QGEKVEGLQAQALYPWRAKKDNHLNCNKNDVITVLEQQDMWWFGEVQGQKGWFPKSYVKLISG [F26C]	-0.723 ± 0.35
QGEKVEGLQAQALYPWRAKKDNHLNRNKNDVITVLEQQDMWWFGEVQGQKGWFPKSYVKLISG [F26R]	-1.01 ± 0.22
QGEKVEGLQAQALYPWRAKKDNHLNGNKNDVITVLEQQDMWWFGEVQGQKGWFPKSYVKLISG [F26G]	-1.02 ± 0.19
QGEKVEGLQAQALYPWRAKKDNHLNINKNDVITVLEQQDMWWFGEVQGQKGWFPKSYVKLISG [F26I]	-0.072 ± 0.22
QGEKVEGLQAQALYPWRAKKDNHLNMNKNDVITVLEQQDMWWFGEVQGQKGWFPKSYVKLISG [F26M]	0.014 ± 0.48
QGEKVEGLQAQALYPWRAKKDNHLNQNKNDVITVLEQQDMWWFGEVQGQKGWFPKSYVKLISG [F26Q]	-1 ± 0.21
QGEKVEGLQAQALYPWRAKKDNHLNVNKNDVITVLEQQDMWWFGEVQGQKGWFPKSYVKLISG [F26V]	-0.335 ± 0.12
QGEKVEGLQAQALYPWRAKKDNHLNENKNDVITVLEQQDMWWFGEVQGQKGWFPKSYVKLISG [F26E]	-1.07 ± 0.39
QGEKVEGLQAQALYPWRAKKDNHLNFSKNDVITVLEQQDMWWFGEVQGQKGWFPKSYVKLISG [N27S]	-0.408 ± 0.43
QGEKVEGLQAQALYPWRAKKDNHLNFTKNDVITVLEQQDMWWFGEVQGQKGWFPKSYVKLISG [N27T]	-0.307 ± 0.43
QGEKVEGLQAQALYPWRAKKDNHLNFGKNDVITVLEQQDMWWFGEVQGQKGWFPKSYVKLISG [N27G]	-0.185 ± 0.17
QGEKVEGLQAQALYPWRAKKDNHLNFAKNDVITVLEQQDMWWFGEVQGQKGWFPKSYVKLISG [N27A]	-0.114 ± 0.31
QGEKVEGLQAQALYPWRAKKDNHLNFQKNDVITVLEQQDMWWFGEVQGQKGWFPKSYVKLISG [N27Q]	-0.143 ± 0.24
QGEKVEGLQAQALYPWRAKKDNHLNFRKNDVITVLEQQDMWWFGEVQGQKGWFPKSYVKLISG [N27R]	-0.016 ± 0.15
QGEKVEGLQAQALYPWRAKKDNHLNFEKNDVITVLEQQDMWWFGEVQGQKGWFPKSYVKLISG [N27E]	0.054 ± 0.45
QGEKVEGLQAQALYPWRAKKDNHLNFKKNDVITVLEQQDMWWFGEVQGQKGWFPKSYVKLISG [N27K]	-0.191 ± 0.17
QGEKVEGLQAQALYPWRAKKDNHLNFVKNDVITVLEQQDMWWFGEVQGQKGWFPKSYVKLISG [N27V]	0.157 ± 0.17
QGEKVEGLQAQALYPWRAKKDNHLNFHKNDVITVLEQQDMWWFGEVQGQKGWFPKSYVKLISG [N27H]	-0.708 ± 0.49

Variant	abundance fitness
QGEKVEGLQAQALYPWRAKKDNHLNFMKNDVITVLEQQDMWWFGEVQGQKGWFPKSYVKLISG [N27M]	-0.037 ± 0.22
QGEKVEGLQAQALYPWRAKKDNHLNFNYNDVITVLEQQDMWWFGEVQGQKGWFPKSYVKLISG [K28Y]	-0.254 ± 0.41
QGEKVEGLQAQALYPWRAKKDNHLNFNPNDVITVLEQQDMWWFGEVQGQKGWFPKSYVKLISG [K28P]	-0.584 ± 0.32
QGEKVEGLQAQALYPWRAKKDNHLNFNGNDVITVLEQQDMWWFGEVQGQKGWFPKSYVKLISG [K28G]	-0.203 ± 0.093
QGEKVEGLQAQALYPWRAKKDNHLNFNNNDVITVLEQQDMWWFGEVQGQKGWFPKSYVKLISG [K28N]	-0.563 ± 0.27
QGEKVEGLQAQALYPWRAKKDNHLNFNANDVITVLEQQDMWWFGEVQGQKGWFPKSYVKLISG [K28A]	-0.264 ± 0.19
QGEKVEGLQAQALYPWRAKKDNHLNFNVNDVITVLEQQDMWWFGEVQGQKGWFPKSYVKLISG [K28V]	-0.256 ± 0.14
QGEKVEGLQAQALYPWRAKKDNHLNFNTNDVITVLEQQDMWWFGEVQGQKGWFPKSYVKLISG [K28T]	0.208 ± 0.24
QGEKVEGLQAQALYPWRAKKDNHLNFNHNDVITVLEQQDMWWFGEVQGQKGWFPKSYVKLISG [K28H]	-0.253 ± 0.24
QGEKVEGLQAQALYPWRAKKDNHLNFNMNDVITVLEQQDMWWFGEVQGQKGWFPKSYVKLISG [K28M]	-0.208 ± 0.19
QGEKVEGLQAQALYPWRAKKDNHLNFNDNDVITVLEQQDMWWFGEVQGQKGWFPKSYVKLISG [K28D]	-0.145 ± 0.46
QGEKVEGLQAQALYPWRAKKDNHLNFNENDVITVLEQQDMWWFGEVQGQKGWFPKSYVKLISG [K28E]	-0.173 ± 0.21
QGEKVEGLQAQALYPWRAKKDNHLNFNRNDVITVLEQQDMWWFGEVQGQKGWFPKSYVKLISG [K28R]	-0.232 ± 0.19
QGEKVEGLQAQALYPWRAKKDNHLNFNINDVITVLEQQDMWWFGEVQGQKGWFPKSYVKLISG [K28I]	-0.649 ± 0.42
QGEKVEGLQAQALYPWRAKKDNHLNFNQNDVITVLEQQDMWWFGEVQGQKGWFPKSYVKLISG [K28Q]	-0.197 ± 0.41
QGEKVEGLQAQALYPWRAKKDNHLNFNCNDVITVLEQQDMWWFGEVQGQKGWFPKSYVKLISG [K28C]	-0.172 ± 0.5
QGEKVEGLQAQALYPWRAKKDNHLNFNLNDVITVLEQQDMWWFGEVQGQKGWFPKSYVKLISG [K28L]	-0.462 ± 0.23
QGEKVEGLQAQALYPWRAKKDNHLNFNKNDCITVLEQQDMWWFGEVQGQKGWFPKSYVKLISG [V31C]	-0.08 ± 0.035
QGEKVEGLQAQALYPWRAKKDNHLNFNKNDHITVLEQQDMWWFGEVQGQKGWFPKSYVKLISG [V31H]	-0.117 ± 0.038
QGEKVEGLQAQALYPWRAKKDNHLNFNKNDEITVLEQQDMWWFGEVQGQKGWFPKSYVKLISG [V31E]	-0.185 ± 0.041
QGEKVEGLQAQALYPWRAKKDNHLNFNKNDAITVLEQQDMWWFGEVQGQKGWFPKSYVKLISG [V31A]	-0.274 ± 0.038
